Data from US7105638B1.

Target: Example III polypeptide 2 (modified truncated TRP-LE - Asp-Leu hinge - Glu - salmon calcitonin Asp 15 analog) (salmon) (UniProt P01263)

With “S. aureus V-8 protease (from UniProt P0C1U8) (enzyme)” the completeness of cleavage at the Glu residue amino terminal to calcitonin was over 95%.
